Measured values from patent US20210139548A1 (published 2021).
*1 amine or outer side, *2 acyl side, *3 side chain or, on linkers, in order; H or OH if unused. Side-chain parts run from the residue outwards. The star is where a group is joined. C18 diacid = O=C(O)CCCCCCCCCCCCCCCCC(=O)*; γGlu = O=C(O)[C@H](CCC(=O)[*:2])N[*:1]; Isovaleryl = CC(C)CC(=O)*; AEEA = NCCOCCOCC(=O)O

T1: human neuropeptide Y2 receptor (human, UniProt P49146 1-381)
T1 construct: whole, on cells; also called hNPY2 receptor; hNPY2-R
T1 sequence (looked up): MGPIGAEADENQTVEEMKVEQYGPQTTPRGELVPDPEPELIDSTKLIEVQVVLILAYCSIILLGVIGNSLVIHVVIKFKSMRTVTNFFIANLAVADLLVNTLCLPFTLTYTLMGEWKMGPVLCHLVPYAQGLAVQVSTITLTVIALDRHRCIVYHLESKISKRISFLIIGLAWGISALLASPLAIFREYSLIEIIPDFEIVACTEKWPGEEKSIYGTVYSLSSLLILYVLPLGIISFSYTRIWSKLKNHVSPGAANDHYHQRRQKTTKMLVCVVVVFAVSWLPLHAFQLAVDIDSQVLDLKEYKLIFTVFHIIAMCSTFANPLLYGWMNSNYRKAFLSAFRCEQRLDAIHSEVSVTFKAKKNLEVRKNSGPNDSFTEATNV


Biological target: T1, human neuropeptide Y2 receptor
Assay: radioligand competition (125I-PYY(1-36)), hNPY2R membranes
Outline: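 Commercial human Y2 receptor membranes (0.5 μg protein/well) were incubated with peptide for 2 h at room temperature in 50 mM HEPES, 5 mM MgCl₂, 1 mM CaCl₂, pH 7.4, with 0.2% ovalbumin. Bound radioligand was separated on PEI-soaked GF/C filters and counted by scintillation, and IC₅₀ came from nonlinear sigmoidal regression.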

Row | Binder | Ki
1 | Isovaleryl-APEK([AEEA-AEEA-γGlu-C18 diacid])PEEDASPEELQRYYVSLRAYYNWLTRQRY-NH2 (SMILES CC(C)CC(=O)N[C@@H](C)C(=O)N1CCC[C@H]1C(=O)N[C@@H](CCC(=O)O)C(=O)N[C@@H](CCCCNC(=O)COCCOCCNC(=O)COCCOCCNC(=O)CC[C@H](NC(=O)CCCCCCCCCCCCCCCCC(=O)O)C(=O)O)C(=O)N1CCC[C@H]1C(=O)N[C@@H](CCC(=O)O)C(=O)N[C@@H](CCC(=O)O)C(=O)N[C@@H](CC(=O)O)C(=O)N[C@@H](C)C(=O)N[C@@H](CO)C(=O)N1CCC[C@H]1C(=O)N[C@@H](CCC(=O)O)C(=O)N[C@@H](CCC(=O)O)C(=O)N[C@@H](CC(C)C)C(=O)N[C@@H](CCC(N)=O)C(=O)N[C@@H](CCCNC(=N)N)C(=O)N[C@@H](Cc1ccc(O)cc1)C(=O)N[C@@H](Cc1ccc(O)cc1)C(=O)N[C@H](C(=O)N[C@@H](CO)C(=O)N[C@@H](CC(C)C)C(=O)N[C@@H](CCCNC(=N)N)C(=O)N[C@@H](C)C(=O)N[C@@H](Cc1ccc(O)cc1)C(=O)N[C@@H](Cc1ccc(O)cc1)C(=O)N[C@@H](CC(N)=O)C(=O)N[C@@H](Cc1c[nH]c2ccccc12)C(=O)N[C@@H](CC(C)C)C(=O)N[C@H](C(=O)N[C@@H](CCCNC(=N)N)C(=O)N[C@@H](CCC(N)=O)C(=O)N[C@@H](CCCNC(=N)N)C(=O)N[C@@H](Cc1ccc(O)cc1)C(N)=O)[C@@H](C)O)C(C)C) [Compound 63] | 3.13 nM
2 | Isovaleryl-APEK([AEEA-AEEA-γGlu-C18 diacid])PEEDSAPEELQRYYVSLRHYYNWLTRQRY-NH2 (SMILES CC(C)CC(=O)N[C@@H](C)C(=O)N1CCC[C@H]1C(=O)N[C@@H](CCC(=O)O)C(=O)N[C@@H](CCCCNC(=O)COCCOCCNC(=O)COCCOCCNC(=O)CC[C@H](NC(=O)CCCCCCCCCCCCCCCCC(=O)O)C(=O)O)C(=O)N1CCC[C@H]1C(=O)N[C@@H](CCC(=O)O)C(=O)N[C@@H](CCC(=O)O)C(=O)N[C@@H](CC(=O)O)C(=O)N[C@@H](CO)C(=O)N[C@@H](C)C(=O)N1CCC[C@H]1C(=O)N[C@@H](CCC(=O)O)C(=O)N[C@@H](CCC(=O)O)C(=O)N[C@@H](CC(C)C)C(=O)N[C@@H](CCC(N)=O)C(=O)N[C@@H](CCCNC(=N)N)C(=O)N[C@@H](Cc1ccc(O)cc1)C(=O)N[C@@H](Cc1ccc(O)cc1)C(=O)N[C@H](C(=O)N[C@@H](CO)C(=O)N[C@@H](CC(C)C)C(=O)N[C@@H](CCCNC(=N)N)C(=O)N[C@@H](Cc1c[nH]cn1)C(=O)N[C@@H](Cc1ccc(O)cc1)C(=O)N[C@@H](Cc1ccc(O)cc1)C(=O)N[C@@H](CC(N)=O)C(=O)N[C@@H](Cc1c[nH]c2ccccc12)C(=O)N[C@@H](CC(C)C)C(=O)N[C@H](C(=O)N[C@@H](CCCNC(=N)N)C(=O)N[C@@H](CCC(N)=O)C(=O)N[C@@H](CCCNC(=N)N)C(=O)N[C@@H](Cc1ccc(O)cc1)C(N)=O)[C@@H](C)O)C(C)C) [Compound 67] | 4.37 nM
3 | Isovaleryl-APEK([AEEA-AEEA-γGlu-C18 diacid])PEEDASPEELQRYYVEIRHYYNWLTRQRY-NH2 (SMILES CC[C@H](C)[C@H](NC(=O)[C@H](CCC(=O)O)NC(=O)[C@@H](NC(=O)[C@H](Cc1ccc(O)cc1)NC(=O)[C@H](Cc1ccc(O)cc1)NC(=O)[C@H](CCCNC(=N)N)NC(=O)[C@H](CCC(N)=O)NC(=O)[C@H](CC(C)C)NC(=O)[C@H](CCC(=O)O)NC(=O)[C@H](CCC(=O)O)NC(=O)[C@@H]1CCCN1C(=O)[C@H](CO)NC(=O)[C@H](C)NC(=O)[C@H](CC(=O)O)NC(=O)[C@H](CCC(=O)O)NC(=O)[C@H](CCC(=O)O)NC(=O)[C@@H]1CCCN1C(=O)[C@H](CCCCNC(=O)COCCOCCNC(=O)COCCOCCNC(=O)CC[C@H](NC(=O)CCCCCCCCCCCCCCCCC(=O)O)C(=O)O)NC(=O)[C@H](CCC(=O)O)NC(=O)[C@@H]1CCCN1C(=O)[C@H](C)NC(=O)CC(C)C)C(C)C)C(=O)N[C@@H](CCCNC(=N)N)C(=O)N[C@@H](Cc1c[nH]cn1)C(=O)N[C@@H](Cc1ccc(O)cc1)C(=O)N[C@@H](Cc1ccc(O)cc1)C(=O)N[C@@H](CC(N)=O)C(=O)N[C@@H](Cc1c[nH]c2ccccc12)C(=O)N[C@@H](CC(C)C)C(=O)N[C@H](C(=O)N[C@@H](CCCNC(=N)N)C(=O)N[C@@H](CCC(N)=O)C(=O)N[C@@H](CCCNC(=N)N)C(=O)N[C@@H](Cc1ccc(O)cc1)C(N)=O)[C@@H](C)O) [Compound 65] | 1.02 nM

Second part, the binder after the results:

Row | Ki | Binder
4 | 5.74 nM | Isovaleryl-APEK([AEEA-AEEA-γGlu-C18 diacid])PEEDSSAEELQRYYVSLRHYYNWLTRQRY-NH2 (SMILES CC(C)CC(=O)N[C@@H](C)C(=O)N1CCC[C@H]1C(=O)N[C@@H](CCC(=O)O)C(=O)N[C@@H](CCCCNC(=O)COCCOCCNC(=O)COCCOCCNC(=O)CC[C@H](NC(=O)CCCCCCCCCCCCCCCCC(=O)O)C(=O)O)C(=O)N1CCC[C@H]1C(=O)N[C@@H](CCC(=O)O)C(=O)N[C@@H](CCC(=O)O)C(=O)N[C@@H](CC(=O)O)C(=O)N[C@@H](CO)C(=O)N[C@@H](CO)C(=O)N[C@@H](C)C(=O)N[C@@H](CCC(=O)O)C(=O)N[C@@H](CCC(=O)O)C(=O)N[C@@H](CC(C)C)C(=O)N[C@@H](CCC(N)=O)C(=O)N[C@@H](CCCNC(=N)N)C(=O)N[C@@H](Cc1ccc(O)cc1)C(=O)N[C@@H](Cc1ccc(O)cc1)C(=O)N[C@H](C(=O)N[C@@H](CO)C(=O)N[C@@H](CC(C)C)C(=O)N[C@@H](CCCNC(=N)N)C(=O)N[C@@H](Cc1c[nH]cn1)C(=O)N[C@@H](Cc1ccc(O)cc1)C(=O)N[C@@H](Cc1ccc(O)cc1)C(=O)N[C@@H](CC(N)=O)C(=O)N[C@@H](Cc1c[nH]c2ccccc12)C(=O)N[C@@H](CC(C)C)C(=O)N[C@H](C(=O)N[C@@H](CCCNC(=N)N)C(=O)N[C@@H](CCC(N)=O)C(=O)N[C@@H](CCCNC(=N)N)C(=O)N[C@@H](Cc1ccc(O)cc1)C(N)=O)[C@@H](C)O)C(C)C) [Compound 69]
5 | 8.47 nM | Isovaleryl-APEK([AEEA-AEEA-γGlu-C18 diacid])PEEEASPEELQAYYVSLRHYYNWLTRQRY-NH2 (SMILES CC(C)CC(=O)N[C@@H](C)C(=O)N1CCC[C@H]1C(=O)N[C@@H](CCC(=O)O)C(=O)N[C@@H](CCCCNC(=O)COCCOCCNC(=O)COCCOCCNC(=O)CC[C@H](NC(=O)CCCCCCCCCCCCCCCCC(=O)O)C(=O)O)C(=O)N1CCC[C@H]1C(=O)N[C@@H](CCC(=O)O)C(=O)N[C@@H](CCC(=O)O)C(=O)N[C@@H](CCC(=O)O)C(=O)N[C@@H](C)C(=O)N[C@@H](CO)C(=O)N1CCC[C@H]1C(=O)N[C@@H](CCC(=O)O)C(=O)N[C@@H](CCC(=O)O)C(=O)N[C@@H](CC(C)C)C(=O)N[C@@H](CCC(N)=O)C(=O)N[C@@H](C)C(=O)N[C@@H](Cc1ccc(O)cc1)C(=O)N[C@@H](Cc1ccc(O)cc1)C(=O)N[C@H](C(=O)N[C@@H](CO)C(=O)N[C@@H](CC(C)C)C(=O)N[C@@H](CCCNC(=N)N)C(=O)N[C@@H](Cc1c[nH]cn1)C(=O)N[C@@H](Cc1ccc(O)cc1)C(=O)N[C@@H](Cc1ccc(O)cc1)C(=O)N[C@@H](CC(N)=O)C(=O)N[C@@H](Cc1c[nH]c2ccccc12)C(=O)N[C@@H](CC(C)C)C(=O)N[C@H](C(=O)N[C@@H](CCCNC(=N)N)C(=O)N[C@@H](CCC(N)=O)C(=O)N[C@@H](CCCNC(=N)N)C(=O)N[C@@H](Cc1ccc(O)cc1)C(N)=O)[C@@H](C)O)C(C)C) [Compound 68]
6 | 4.86 nM | Isovaleryl-APEK([AEEA-AEEA-γGlu-C18 diacid])PEEAASPEELQRYEVSLRHYYNWLTRQRY-NH2 (SMILES CC(C)CC(=O)N[C@@H](C)C(=O)N1CCC[C@H]1C(=O)N[C@@H](CCC(=O)O)C(=O)N[C@@H](CCCCNC(=O)COCCOCCNC(=O)COCCOCCNC(=O)CC[C@H](NC(=O)CCCCCCCCCCCCCCCCC(=O)O)C(=O)O)C(=O)N1CCC[C@H]1C(=O)N[C@@H](CCC(=O)O)C(=O)N[C@@H](CCC(=O)O)C(=O)N[C@@H](C)C(=O)N[C@@H](C)C(=O)N[C@@H](CO)C(=O)N1CCC[C@H]1C(=O)N[C@@H](CCC(=O)O)C(=O)N[C@@H](CCC(=O)O)C(=O)N[C@@H](CC(C)C)C(=O)N[C@@H](CCC(N)=O)C(=O)N[C@@H](CCCNC(=N)N)C(=O)N[C@@H](Cc1ccc(O)cc1)C(=O)N[C@@H](CCC(=O)O)C(=O)N[C@H](C(=O)N[C@@H](CO)C(=O)N[C@@H](CC(C)C)C(=O)N[C@@H](CCCNC(=N)N)C(=O)N[C@@H](Cc1c[nH]cn1)C(=O)N[C@@H](Cc1ccc(O)cc1)C(=O)N[C@@H](Cc1ccc(O)cc1)C(=O)N[C@@H](CC(N)=O)C(=O)N[C@@H](Cc1c[nH]c2ccccc12)C(=O)N[C@@H](CC(C)C)C(=O)N[C@H](C(=O)N[C@@H](CCCNC(=N)N)C(=O)N[C@@H](CCC(N)=O)C(=O)N[C@@H](CCCNC(=N)N)C(=O)N[C@@H](Cc1ccc(O)cc1)C(N)=O)[C@@H](C)O)C(C)C) [Compound 70]
